Here are results for 1 molecule from patent US20030044809A1, “Nucleic acid binding of multi-zinc finger transcription factors” (published 2003).

One series concerns the target T1, GST-SIP1CZF (mouse, UniProt Q9R0G7 Q9R0G7:957-1156).
T1 sequence: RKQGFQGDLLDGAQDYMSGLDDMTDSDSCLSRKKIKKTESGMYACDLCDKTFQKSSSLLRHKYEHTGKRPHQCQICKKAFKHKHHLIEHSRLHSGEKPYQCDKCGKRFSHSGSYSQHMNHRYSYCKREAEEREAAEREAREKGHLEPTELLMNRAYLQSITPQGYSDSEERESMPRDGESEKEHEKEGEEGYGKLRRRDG
Put plainly: EMSA; strong. As to conditions: tags: GST; label: 32P. As to the method: (§1) The DNA binding assay (20 μl) was performed at 25° C., with 1 μg of COS1 total cell protein, […] of poly dI-dC, 10 pg of ³²P-labeled double-stranded oligonucleotide (approx. 10⁴ Cerenkov counts) in the δEF1 binding buffer described previously (30). For supershift experiments, the extracts were incubated with anti-Myc (Santa Cruz) or anti-FLAG (Kodak) antibodies. For competition, an excess of unlabeled double-stranded oligonucleotides was added together with the labeled probe. The binding reaction was loaded onto a 4% polyacrylamide gel (acrylamide/bis-acrylamide, 19:1) prepared in 0.5XTBE buffer. Following electrophoresis, gels were dried, and exposed to X-Ray film. All experiments were repeated at least three times.
(§2) The integrity of both SIP1 zinc finger clusters is necessary for the binding of SIP1FS to DNA: Mutations within NZF3, NZF4, CZF2, CZF3 abolish the DNA-binding activity of either the SIP1NZF or SIP1CZF zinc finger clusters. The wild type and mutated zinc finger clusters were fused to GST and the fusion proteins were produced in E. Coli. After purification, an equal amount of each fusion proteins (0.1 ng) was incubated with 10 pg of labeled Xbra-E probe. Mutations within NZF3, NZF4, CZF2 or CZF3 affect the binding of SIP1FS to the Xbra-WT probe. […]

In another series the target is T2, GST-SIP1NZF (mouse, UniProt Q9R0G7 Q9R0G7:90-383).
T2 sequence: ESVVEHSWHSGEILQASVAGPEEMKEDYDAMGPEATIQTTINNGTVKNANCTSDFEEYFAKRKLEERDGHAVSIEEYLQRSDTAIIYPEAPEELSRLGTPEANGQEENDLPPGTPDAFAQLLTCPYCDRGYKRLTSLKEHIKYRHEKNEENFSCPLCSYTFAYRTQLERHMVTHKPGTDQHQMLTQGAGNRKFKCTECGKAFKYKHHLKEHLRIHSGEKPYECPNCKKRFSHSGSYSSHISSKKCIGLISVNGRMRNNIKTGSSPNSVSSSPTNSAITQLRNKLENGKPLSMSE
Put plainly: EMSA; strong. As to conditions: tags: GST; label: 32P. As to the method:
as §1, §2

B1: Xbra-E (dsDNA)
DNA 1: TAAAGTGACCAGGTGTCAGTTCT
DNA 2: AGAACTGACACCTGGTCACTTTA
B1: the binding result with GST-SIP1CZF and with GST-SIP1NZF was “binds” throughout.
